# Results reported in PMC12016525, “The GCN4-Swi6B module mediates low nitrogen-induced cell wall remodeling in Ganoderma lucidum”.
# B1: SWI6 promoter GBE probe (pSwi6-Biotin) (dsDNA)
# DNA 1: GAAAGTACCAGGGCACCTGGTGAGTCTCAGTCTCGGTGCCATG
# DNA 2: CATGGCACCGAGACTGAGACTCACCAGGTGCCCTGGTACTTTC
# B2: m-SWI6 mutant probe (pSwi6-M-Biotin) (dsDNA)
# DNA 1: GAAAGTACCAGGGATAAATTTATTATATAGTCTCGGTGCCATG
# DNA 2: CATGGCACCGAGACTATATAATAAATTTATCCCTGGTACTTTC
# How the values were obtained:
# [1] = molecular target: T1, GCN4 (Ganoderma lucidum, UniProt A0A6H0YJ80 1-300); test: SPR; conditions: SPR: 10 mM HEPES pH 7.4, 150 mM NaCl, 3 mM EDTA, 0.005% P20, 25 C, SA chip, GCN4 7.81-125 nM; EMSA: Thermo 89880 kit, conditions not stated; in M (unit assumed)
# [2] = molecular target: T1, GCN4; test: EMSA; SPR: 10 mM HEPES pH 7.4, 150 mM NaCl, 3 mM EDTA, 0.005% P20, 25 C, SA chip, GCN4 7.81-125 nM; EMSA: Thermo 89880 kit, conditions not stated; conditions: protein: recombinant; tags: His; chain copies: 2; blunt
# T1 sequence (A0A6H0YJ80 entry or part of it): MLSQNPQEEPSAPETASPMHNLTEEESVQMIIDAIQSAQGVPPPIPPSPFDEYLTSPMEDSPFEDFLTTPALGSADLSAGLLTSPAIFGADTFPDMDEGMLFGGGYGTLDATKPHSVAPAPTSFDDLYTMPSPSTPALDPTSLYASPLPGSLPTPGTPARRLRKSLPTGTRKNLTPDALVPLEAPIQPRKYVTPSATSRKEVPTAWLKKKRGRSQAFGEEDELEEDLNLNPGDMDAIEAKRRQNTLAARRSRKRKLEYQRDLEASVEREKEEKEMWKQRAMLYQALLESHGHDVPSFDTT
Molecule,Kd (M (unit not given)) [1],binding result [2]
SWI6 (GBE) SPR probe,8.79e-08,
B1,,binds
B2,,no binding
